Sequences and labels used below:
B1: VH:VL chains; a variant is named by its letters at X, in order (parent)
chain 1: QVQLVQSGAEVKKPGASVKVSCKASGYTFTDYXMHWVRQAPGQGLEWMGXVNPNXXXTTYNQKFEGRVTMTTDTSTSTAYMELRSLRSDDTAVYYCARXNXLDXWGQGTTVTVSS
chain 2: DIQMTQSPSSLSASVGDRVTITCSVSSSVSSIYLHWYQQKPGKAPKLLIYSTSNLASGVPSRFSGSGSGTDFTLTISSLQPEDFATYYCQVYSGYPLTFGGGTKVEIK

The variants in the series derive from B1. In words: yeast display scFab, FACS + sequencing. The method, boiled down: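 Non-specific binding was called from deep sequencing of sorted yeast cells displaying a heavy-chain CDR mutant scFab library. Cells labelled with anti-Myc and biotinylated ovalbumin (260 μg/mL in PBSB, 3 h, room temperature) or soluble membrane proteins (130 μg/mL, 20 min on ice) were FACS-sorted, collecting the top 25% and bottom 10% of binders from two replicates. A sequence was positive when present in ≥3 of 4 pooled positive samples and absent from all negatives, and negative under the converse rule.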
On to VTGGDALA, for which the non-specific binding call was “no binding”.
The value for YTGEADAS was “no binding”; that for ATGRAAGD was “no binding”.
As to FTGEADAS, the non-specific binding call is “no binding”.
Next, YTEKGVGV: “binds”; DTGGDAGV: “no binding”.
The value for VTGGDSWF was “no binding”; that for VTGANDWV was “no binding”.
The value for YTGTGSGA was “no binding”; that for VTGTGDWV was “no binding”.
Regarding VTGTGDWF, the non-specific binding call is “no binding”.
As to STEEGDWV, the non-specific binding call is listed as “no binding”.
The value for VTGTGSGF was “no binding”; that for VTGTGSGD was “no binding”; that for DTGEADAS was “no binding”.
For the variant STGRAALA, the non-specific binding call is “no binding”.
Next, ATGGDDGF: “no binding”; DTGTGSGA: “no binding”.
The value for YTGGGDGV was “no binding”.
The value for VTETGSLV was “no binding”.
Consider YTGEDAVA, for which the non-specific binding call is listed as “no binding”.
Next, DTGKDAGD: “no binding”.
Next, VTGRAAWV: “no binding”; DTGGSASA: “no binding”; DTGTGDSA: “no binding”.
Consider VTERDDAV, for which the non-specific binding call is “no binding”.
Next, VTGTGDVV: “no binding”; VTGTGDVY: “no binding”; FTGGAAGD: “no binding”.
On to DTGGGDLA, for which the non-specific binding call is “no binding”.
The value for VTGGDSAS was “no binding”.
Next, YTEGDDGA: “no binding”; YTEGDDGD: “no binding”.
Regarding YTEGDDGV, the non-specific binding call is “no binding”.
The value for STEGGSVY was “no binding”; that for DTGRGSGV was “no binding”; that for VTGGDDGA was “no binding”.
As for VTGGDDGY, the non-specific binding call was “no binding”.
Next, YTEGDDWY: “no binding”; VTGTGAVV: “no binding”; VTGTGAVY: “no binding”.
The value for DTERDDAV was “no binding”; that for VTGGDSSA was “no binding”; that for VTGGDSSD was “no binding”.
Next, YTETGDSV: “no binding”; VTGEDSSD: “no binding”.
Consider STGGGDGV, for which the non-specific binding call is given as “no binding”.
For DTEGGSAS, the non-specific binding call is “no binding”.
In the case of VTGESDWY, the non-specific binding call was “no binding”.
For the variant YTEEAAVD, the non-specific binding call is recorded as “no binding”.
The value for YTERGDAV was “no binding”; that for VTGTGDGV was “no binding”; that for VTGTGDGA was “no binding”.
Next, DTGGDDWF: “no binding”; YTGGDDVY: “no binding”.
Next, YTGGDDVD: “no binding”.
Regarding YTGGDDVV, the non-specific binding call is “no binding”.
For VTGGDYAV, the non-specific binding call is listed as “no binding”.
The value for FTETGAGD was “no binding”.
The value for YTEEGDWV was “no binding”.
Next, YTGEGSWV: “no binding”; VTGTGSLV: “no binding”.
As for VTGTGSLD, the non-specific binding call is “no binding”.
The value for DTGGGAGA was “no binding”; that for FTETGFGA was “binds”; that for YTGGDDWV was “no binding”.
In the case of VTEGGALA, the non-specific binding call is on record as “no binding”.
The value for ATGTGSGA was “no binding”; that for VTGGGDGS was “no binding”; that for VTGGGDGA was “no binding”.
The value for STGEDDVY was “no binding”; that for DTGANDWV was “no binding”; that for VTGGSDVY was “no binding”.
As to FTEEGDGA, the non-specific binding call is listed as “no binding”.
On to FTEEGDGV, for which the non-specific binding call was “no binding”.
On to YTEKTFSD, for which the non-specific binding call is given as “binds”.
Next, VTGGGASF: “no binding”; ATGEDDVY: “no binding”.
The value for ATGEADAS was “no binding”; that for YTEETDGF was “binds”.
In the case of VTERGSLD, the non-specific binding call was “no binding”.
The value for VTEGDSGV was “no binding”; that for YTGRAALA was “no binding”.
As to ATGRADVY, the non-specific binding call is recorded as “no binding”.
For the variant VTGRAALA, the non-specific binding call is “no binding”.
Next, FTGRGSAD: “binds”; VTGGDSLV: “no binding”; YTGGNDAD: “no binding”.
The value for YTGRGSGV was “binds”; that for ATGRADGV was “no binding”; that for DTGRADWA was “no binding”.
STGEADAS: the non-specific binding call was “no binding”.
In the case of YTGEDDVY, the non-specific binding call is given as “no binding”.
Next, VTGEDAGD: “no binding”; VTGEDAGA: “no binding”; VTGEDAGS: “no binding”.
As to VTGEDDVD, the non-specific binding call was “no binding”.
As for VTGEDDVV, the non-specific binding call is “no binding”.
Next, VTGEDDVA: “no binding”.
The value for DTGTGALV was “no binding”.
Turning to DTEEGDWV, the non-specific binding call was “no binding”.
Next, VTGEDDWD: “no binding”.
The value for VTGEDDWY was “no binding”; that for VTGEDDWV was “no binding”; that for STGTGSGA was “no binding”.
The value for VTEGGSVD was “binds”.
Consider DTGGGDAV, for which the non-specific binding call was “no binding”.
Next, DTGGGDAY: “no binding”.
As to DTGGGDAA, the non-specific binding call is “no binding”.

Source of the values: the emibetuzumab library of Makowski et al. (2022).
